Laboratory results: a protein production outcome set (Wang et al. 2014)

Assay: label from the status in PepcDB records

Row | Sequence | protein production
1 | MRKKQKLPFDKLAIALMSTSILLNAQSDIKANTVTEDTPAAEQAVETPQPTAVSEEVPSSKETKTPQTPDNAEETVADKANDLALQAPAKTADTPATSKATIRDLNDPSQVKTLQEKAGKGAGTVVAVIDAGFDKNHEAWRLTDKTKARYQSKEDLEKAKKEHGITYGEWVNDKVAYYHDYSKDGKTAVDQEHGTHVSGILSGNAPSETKEPYRLEGAMPEAQLLLMRVEIVNGLADYARNYAQAIRDAVNLGAKVINMSFGNAALAYANLPDETKKAFDYAKSKGVSIVTSAGNDSSFGGKTRLPLADHPDYGVVGTPAAADSTLTVASYSPDKQLTETATVKTADQQDKEMPVLSTNRFEPNKAYDYAYANRGMKEDDFKDVKGKIALIERGDIDFKDKIANAKKAGAVGVLIYDNQDKGFPIELPNVDQMPAAFISRKDGLLLKENPQKTITFNATPKVLPTASGTKLSRFSSWGLTADGNIKPDIAAPGQDILSSVANNKYAKLSGTSMSAPLVAGIMGLLQKQYEIQYPDMTPSERLDLAKKVLMSSATALYDEDEKAYFSPRQQGAGAVDAKKASAATMYVTDKDNTSSKVHLNNVSDKFEVTVTVHNKSDKPQELYYQATVQTDKVDGKHFALAPKALYETSWQKITIPANSSKQVTVPIDASRFSKDLLAQMKNGYFLEGFVRFKQDPKKEELMSIPYIGFRGDFGNLSALEKPIYDSKDGSSYYHEANSDAKDQLDGDGLQFYALKNNFTALTTESNPWTIIKAVKEGVENIEDIESSEITETIFAGTFAKQDDDSHYYIHRHANGKPYAAISPNGDGNRDYVQFQGTFLRNAKNLVAEVLDKEGNVVWTSEVTEQVVKNYNNDLASTLGSTRFEKTRWDGKDKDGKVVANGTYTYRVRYTPISSGAKEQHTDFDVIVDNTTLEVATSATFSTEDRRLTLASKPKTSQPIYRERIAYTYMDEDLPTTEYISPNEDGTFTLPEEAETMEGATVPLKMSDFTYVVEDMAGNITYTPVTKLLEGHSNKPEQDGSDQAPDKKPEAKPEQDGSGQTPDKKPETKPEKDSSGQTPGKTPQKGQPSRTLEKRSSKRALATKASARDQLPTTNDKDTNRLHLLKLVMTTFFFGLVAHIFKTKRQKETKK | failed
2 | MKSALSDFILGKKGIYGILHIIILLMSLFLVISISIDTFKGIPFYTQSSYMKIQLWICIWFLFDFVLEFFLAKHKWRYIRTHFIFLLVAIPYQNIIAYYGWTFSPEVTYLLRFIPLLRGGYALAIVVGWLTYNRASSLFVSYLTMLLATVYFASLAFFVLEHKVNPLVTDYGDALWWAFMDVTTVGSNIIAMTTTGRVLSVLLAALGMMMFPIFTVYITNLIQQSNQKKKQYYAEEEEKTASA | failed
3 | MRLYVMLLSLSLIWGFSFVFIEHLLGIVGVWGTVVVRCFAGAIILLPILLMRRKLFYRPAPWKALMIVGIFNAGLPWGLIALSQTEIYSSTAAVLNALTPLFTGLIGFLLYSNALSRQQWGGIVLGFSGVVVLTGFQLQLLAPEHFVGVGTMILATICYGFASQYVKRHLHDTDVVLITTFSLLFGGLVGLIGMWITDSLHVVRVPLTIDWLSLISIIGLGCLGSGMAHLLYYDLMKKGGPEFATTVTYLIPMTAIIWGKLFLDELITKNIVIGMLMILMGVYFTSRKRNVCSKANEDSNKGELA | failed
4 | MHLKKIWAVIYAVMLAAFSTFVLLDAFVIPKDRIKADEPIQSQEITDESIEAKAEAVITENSYKDDKISITISELREYDTSIYVADIQLADASYLRAGLADGTFGRNVTEVTSQIAQDSNAILAINGDFYGFRNKGYVMRNGYLYRETAQQGRQGNSRQEDLVIYEDGHMDVIEENEVAAQTLKDSGASQIFSFGPGLIKNGNITVDENSEVEQSMQSNPRTAIGMITPLHYIMAVSDGRTEASEGLTLYQLAQIMKGQDCVTAYNLDGGGSSTMWFNGEVVNKPTSYGSKISERAVSDIVYIGR | failed
5 | MITIDPEYFEILKEFGAERVVRCYQCGTCTGICPVSTTDASFPRKPVLLSRFGVGEVIENFEEAWLCLSCNLCTEFCPRDVKPSETMLAIKRVLVENGKTPPYIRDFFQLEHHHHHH | failed
6 | MAHLVITIGCEYGAKGNQIGKKVAKDLGIKFYDRDTVDEIIKEVGIPKDIMEKVEEGITIAGKGAEGDVRGSFSKYADLTERAIHVQKTIIRKLSDRESCVIIGRSADYILKEHKPILRIFIYSPDEVRIENVMKSHNLSEDDAKLFITEKDKRYHKRHMALTGSNRGDRHNRDMLIDSSLLGVDGTAELIESLARKVVENESKTEAGGDK | not failed
7 | MGTEERKARQKRYPPVLQDSGERPRRRFPYVSRSFVPSVFTVMNMVSGYVSIVMAGEGSFVIAGWLIFLAAFFDTIDGFVARLTNSSSEFGVELDSLSDLVSFGAAPAYLVYKFGLEHIGMPWGLLLSSLLMVGSGLRLARFNINLIDYHKDSFSGLPTPAQAMTVASFVLWMSVEPLFTELALQKVLMVLSVLLATLMVSKVNYDALPKPTLESFRSHPVQMILYVIAIFCVLVFQAKAFFVAMLLYILLGIVRSLTRTVQEWQL | failed
8 | MPSQLGITLKQVRLQQHLSQATVATGICAQSMLSAIENGKYTPNATLLMRLCQRLKISLDQLSLAENFTISDLEQINDRLAKLCNHHRYADLREFLLTDAVQARLTTDVQLAAYYYYLGITDFQLGHLTDAQQQFQLALASAPAQHRTTLSRLCWMSLALIHASRQQANASEEAMTQAVTQLKTAPYEANLNSLFYLAAVSHLKLNQLTIAAQWLERGIDFATDHDSHYMLANDYHLLAVIASRSEQIDQQRTAQATEHVLTTLFHESIYDRLD | failed
9 | MPKEKYEPPDPRRMYTIMSSEEAANGKKSHWAELEISGKVRSLSSSLWSLTHLTALHLSDNSLSCIPSDIAKLHNLVYLDLSHNQIQSLPAELGNMVSLRELHLNYNQLRVLPFELGKLFQLQTLSLKGNPLTQDILNLCLEPDGTRRLLNYLLDNLSVSTEQPPPRSWIMLQEPDRTRPTALFSVMCYNVLCDKYATRQLYGYCPSWALNWDYRKKAIIQEILSCNADIISLQEVETEQYYSFFLVELKERGYNGFFSPKSRARTMSEQERKHVDGCAIFFKTEKFTLVQKHTVEFNQLAMANSEGSEAMLNRVMTKDNIGVAVLLELRKELIEMSSGKPHLGTEKQLILVANAHMHWDPEYSDVKLVQTMMFLSEVKNIIDKASRSLKSSVLGECGTIPLVLCADLNSLPDSGVVEYLSTGGVETNHKDFKELRYNESLTNFSCNGKNGMTNGRITHGFKLKSAYENGLMPYTNYTFDFKVSFHSLIFISMFCNFLSLKHQCML | failed
10 | MVRLEDYGTWDEALKRLEASRKALLALLREADPAWLSAPLREGAWTPLMVAEHVALVEDSTARVLRRLRRLAAGENLPPVPVKPGEFKDGKPQAPEGVRPKGGLSLEEVLALLDRARAFLLEEVAKADPQNPATFPHPFFGELNPLGWLRAAAYHEAHHLKALQASLPR | not failed
11 | ALKQKIIGNGEKRVVTYAPTWREDDFISVGHYHFRWHFSLKKMMGLLPEDVMLLIRPHYLVTDRIDIKGFEDRVVIDSTTDMNEIYLITDLMVTDYSSVMFDFAILKRPMLFFAYDLEYYRDDLRGFYFDYYTELPGSIVTDETHLLAEIDQLLQNNFAELDPERFNKFAKRFVSWERGTAAQQVIEKINY | not failed
12 | DRTTYYSILGLTSNATSSEVHKSYLKLARLLHPDKTKSDKSEELFKAVVHAHSILTDEDQKLRYDRDLKIKGLHTYQPKK | failed
13 | MKRKLLAILLSVSMIATLVTACGSKEVSDNSAKEEGVTVEDVKAALKDENAVVLDARTQDAYAGWSTENNKLGGHIESSSGFSAAWLTCEYDDEANDDNRTREERLEICMEDKGITADTKVIIYDENGKDAAAVSEYLSGKGVKDIETFNLADWDGELVKYENYQTILPPSIVKKLIDGETVEEVGEVKDLKVLEFSWGTEEESGYLEGHVPTAIHINSDDVDDENNIYVLDKDEILLETVKKAGVTVDSTVVVTGAGLFSCHLATILKYLGVEDVYIMSGGANGWTDAGYEAEKGSNTPVAVEDFGTDKPLNPDYIDDVEEVSLLLTDKNAQVIDTRAYKEFTGESSGYSYVEEAGRLNGAIFGQEDGSAQGPDCTGSSMMYYENIDGTMRDASEILEMWSNSNVDVNKHLSFYCGGGYRAAAVMWYAQAMGLEDTSLYNDGWAGWIVYGKDAVKGTYEDPQPVN | failed
14 | MEKDLLDKLGQHLVWRMGRAEDEDVLVVRVGLASATPRFRELPRLLNLPEAEMRRLVQEGRVRVEWVEE | not failed
15 | MNYFLMIILGVLGAESRFAIELTIDNSAYPYGTLIINMIGCFLLGFMYYFFVEAKKTINQLVAVVSTGFVGSFTTFSTFELEIFKMFQLDQYLKAISYFFVTMLSGLLFVFLGYCLSKLIIIKRKENK | failed
16 | MTTMQQRYDAVKDAMAQIGRLAAQLDGEALREAIGPVLVALGERDELFPRDEFPIRAGKPGGLYQLWRGESGDLALYASAGKTGKKQPPHDHTTWAVIAGVYGEEHNVFFERTDDGSRAGFGTLRQIDALTVVQGNAARLSGEVFHTIEVVSEEDSLHLHLHLYGRALDTLSGRINFATEEGGAYTRFMAVPETYAPWIAPRDLYEMLTDGGELAILDVRENGVYTQGHLFHAASMPLSVFELRVDDGLPSPHVRIVVIDDADGLAEQAVRLLHQRGYHNVAVLQGGQPGWNAAGLPVYTGVFVPSKAFGEVAEHVYGTPSISAVELDALRRSEEVLVLDSRTEQEFNLMSVPGAYSCPGAELVARALDHAGPIVVNCAGRTRSIIGAQSLRNAGKTDVRALENGTMGQHLAGLPLERGKSASYLDRPVAAGAAQAAQAWALGMSIATLDAGELHDMLSNPYRTTYLFDARDPSCSSRATLPRAVAAPGGQLVQQTDYYAPVRNARIVVFDTDGVQAPMTAGWLHQMGWEVYLHRPEATALVAPPRVEYDDERGVPVEAVAADAVIIDVGDSRTYRAGHLAGAAWAPRSRLPALLAQRKPAGPLLFTCADGRVSRLAAADAAAQGYQAAYLKGGTAALGADRLRGDAPQFLTEAIDVWYRPYDRETGIEEAMHQYLSWETGLLDKVRSDPTVAFRI | failed
17 | WSLQPLADMSAAEFRDWQVLLENRTGVVLNEQRRTFLQASLTARMRELGIGDYHSYYRQVTDGPRGAVEWATLLDRLTVQETRFFRHPPSFELLERYLGERLRREGMPRPWALWSVGCSSGEEPYSLAMCAAQVLRGQEREDFFGVTGTDISLHALQRARQANYPARKLEQLEAGLVERYCERQADGSFSVKTILTERVCCARLNVLDLAKAPWSGMDVIFCQNLLIYFRRWRRREILNRLAERLAPGGLLVIGVGEVVDWSHPELEPVADERVL | failed
